Data published in paper PMC4837458.
Where a chain is given by its changes, count along the chain named.

Assays:
[1] = test system: dPPR-4 (designed (synthetic; NTD/CTD from Zea mays PPR10)); assay: EMSA; conditions: 5 mM Mg2+; apparent Kd; EMSA: 25 mM Tris-HCl pH 8.0, 5 mM MgCl2, 5 mM DTT, 0.1 mg/ml BSA, 50 ng/ml heparin, 10% glycerol, ~2 nM 32P-RNA, 20 min on ice
[2] = test system: dPPR-TN (designed (synthetic; NTD/CTD from Zea mays PPR10)); assay: EMSA; conditions: 5 mM Mg2+; apparent Kd; EMSA: 25 mM Tris-HCl pH 8.0, 5 mM MgCl2, 5 mM DTT, 0.1 mg/ml BSA, 50 ng/ml heparin, 10% glycerol, ~2 nM 32P-RNA, 20 min on ice
[3] = test system: dPPR-U8A2 N318S;D348N;N353S;D383N (designed (synthetic; NTD/CTD from Zea mays PPR10)), PDB:5I9D_1; assay: EMSA; conditions: 5 mM Mg2+; apparent Kd; EMSA: 25 mM Tris-HCl pH 8.0, 5 mM MgCl2, 5 mM DTT, 0.1 mg/ml BSA, 50 ng/ml heparin, 10% glycerol, ~2 nM 32P-RNA, 20 min on ice
[4] = test system: T1, dPPR-U8C2 D348S;D383S (designed (synthetic; NTD/CTD from Zea mays PPR10)), PDB:5I9G_1; assay: EMSA; conditions: 5 mM Mg2+; apparent Kd; EMSA: 25 mM Tris-HCl pH 8.0, 5 mM MgCl2, 5 mM DTT, 0.1 mg/ml BSA, 50 ng/ml heparin, 10% glycerol, ~2 nM 32P-RNA, 20 min on ice
T1 sequence: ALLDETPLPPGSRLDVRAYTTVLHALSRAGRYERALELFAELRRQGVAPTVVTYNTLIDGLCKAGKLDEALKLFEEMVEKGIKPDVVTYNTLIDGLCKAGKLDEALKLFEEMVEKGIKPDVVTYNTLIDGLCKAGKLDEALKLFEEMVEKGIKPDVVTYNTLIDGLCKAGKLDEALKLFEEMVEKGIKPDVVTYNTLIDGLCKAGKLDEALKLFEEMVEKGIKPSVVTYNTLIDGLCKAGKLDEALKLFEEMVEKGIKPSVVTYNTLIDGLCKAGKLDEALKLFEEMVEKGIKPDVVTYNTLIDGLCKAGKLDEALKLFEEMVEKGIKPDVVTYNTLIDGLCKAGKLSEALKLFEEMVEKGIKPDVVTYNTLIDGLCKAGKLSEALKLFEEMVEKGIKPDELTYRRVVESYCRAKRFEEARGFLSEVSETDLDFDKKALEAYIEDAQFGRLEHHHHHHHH

[5] = test system: dPPR-NN (designed (synthetic; NTD/CTD from Zea mays PPR10)); assay: EMSA; conditions: 5 mM Mg2+; apparent Kd; EMSA: 25 mM Tris-HCl pH 8.0, 5 mM MgCl2, 5 mM DTT, 0.1 mg/ml BSA, 50 ng/ml heparin, 10% glycerol, ~2 nM 32P-RNA, 20 min on ice
[6] = test system: dPPR-SD (designed (synthetic; NTD/CTD from Zea mays PPR10)); assay: EMSA; conditions: 5 mM Mg2+; apparent Kd; EMSA: 25 mM Tris-HCl pH 8.0, 5 mM MgCl2, 5 mM DTT, 0.1 mg/ml BSA, 50 ng/ml heparin, 10% glycerol, ~2 nM 32P-RNA, 20 min on ice
[7] = test system: dPPR-U8G2 N318T;N353T (designed (synthetic; NTD/CTD from Zea mays PPR10)), PDB:5I9H_1; assay: EMSA; conditions: 5 mM Mg2+; apparent Kd; EMSA: 25 mM Tris-HCl pH 8.0, 5 mM MgCl2, 5 mM DTT, 0.1 mg/ml BSA, 50 ng/ml heparin, 10% glycerol, ~2 nM 32P-RNA, 20 min on ice
[8] = target: T2, dPPR-U8C2 (designed (synthetic; NTD/CTD from Zea …, UniProt PDB:5I9G_1 1-460, D348S;D383S); assay: EMSA; C5,C6 to U; EMSA: 25 mM Tris-HCl pH 8.0, 5 mM MgCl2, 5 mM DTT, 0.1 mg/ml BSA, 50 ng/ml heparin, 10% glycerol, ~2 nM 32P-RNA, 20 min on ice
T2 sequence: T1 sequence

[9] = target: T3, dPPR-U10 (designed (synthetic; NTD/CTD from Zea …, UniProt PDB:5I9F_1 1-460); assay: EMSA; 5 mM Mg2+; apparent Kd; EMSA: 25 mM Tris-HCl pH 8.0, 5 mM MgCl2, 5 mM DTT, 0.1 mg/ml BSA, 50 ng/ml heparin, 10% glycerol, ~2 nM 32P-RNA, 20 min on ice
T3 chain: T1 sequence with S225D, S260D, S348D, S383D

[10] = target: T3, dPPR-U10; assay: X-ray crystallography; 2.20 A; EMSA: 25 mM Tris-HCl pH 8.0, 5 mM MgCl2, 5 mM DTT, 0.1 mg/ml BSA, 50 ng/ml heparin, 10% glycerol, ~2 nM 32P-RNA, 20 min on ice
[11] = target: T2, dPPR-U8C2; assay: X-ray crystallography; 2.30 A; EMSA: 25 mM Tris-HCl pH 8.0, 5 mM MgCl2, 5 mM DTT, 0.1 mg/ml BSA, 50 ng/ml heparin, 10% glycerol, ~2 nM 32P-RNA, 20 min on ice

UUCCAGAU [dPPR-4 target]
Kd [1]: 24.6 nM

UUUUAAUUUU [U8A2 target]
Kd [2]: 58.9 nM | Kd [3]: 23.8 nM

UUUUCCUUUU [U8C2 target]
Kd [4]: 18.5 nM | Kd [5]: 14.6 nM

UUUUGGUUUU [U8G2 target]
Kd [6]: 31.1 nM | Kd [7]: 29.8 nM

UUUUUUUUUU [U10 target]
Kd [5]: 15.9 nM

UUUUUUUUUU (ssRNA) [U10 target]
binding result [8]: no binding | Kd [9]: 74.3 ± 7.9 nM

GGGGUUUUUUUUUUCCCC (ssRNA) [18-nt U10 crystal RNA]
binding result [10]: binds

GGGGUUUUCCUUUUCCCC (ssRNA) [18-nt U8C2 crystal RNA]
binding result [11]: binds
